Data reported in patent US20240317842A1 (HOSPITAL FOR SICK CHILDREN, published 2024).

Molecular target: T1, 32-N MB.v3
T1 construct: Self-assembled apoferritin nanocage (Multabody), plasmids co-transfected 3:1:1; monomeric IgG1 Fc chain at the C-terminus of C-ferritin, which dimerises in the particle; also called Multabody.v3; T-01 MBv2
Experiment: BLI, His-tagged FcγRIIa on Ni-NTA biosensors, Multabody in solution [8f]

B1: FcRIIa (receptor, human, UniProt P12318 34-217, looked up)
receptor chain: QAAAPPKAVLKLEPPWINVLQEDSVTLTCQGARSPESDSIQWFHNGNLIPTHTQPSYRFKANNNDSGEYTCQTGQTSLSDPVHLTVLSEWLVLQTPHLEFQEGETIMLRCHSWKDKPLVKVTFFQNGKSQKFSHLDPTFSIPQANHSHSGDYHCTGNIGYTLFSSKPVTITVQVPSMGSSSPMG
notes: His-tagged ligand loaded on Ni-NTA biosensors; also called FcγRIIa
B1: no binding.
